Test results: patent publication US20140018304A1 (INDUSTRY ACADEMIC COOPERATION FOUNDATION YONSEI UNIVERSITY, published 2014)

Assays:
[1] = molecular target: T1, Bacterial Alkaline Phasphatase (BAP) (UniProt P00634 22-471 = phosphatase); assay: co-expression in HeLa cells, precipitation with Ni-NTA resin, western blot
T1 construct: Control
Description: Appropriate plasmid combination was transfected into HeLa cells using Lipofectamine Plus (Invitrogen). At 48 hours post-transfection, transfected cells were dissolved in the cell lysis buffer (10 mM Tris, pH 7.5, mM NaCl, 2 mM EDTA, 0.5% Triton X-100, 1 mM PMSF, and protease inhibitor cocktail (Roche Diagnostics, Mannheim, Germany)) to obtain total proteins. For secretary protein preparation, the culture medium was exchanged with a serum-free culture medium at 24 hours post transfection of the plasmid, followed by culturing again for 24 hours, and then the culture medium was collected. The collected culture medium was centrifuged to discard cell components. For immunoprecipitation of His-tagged proteins, 300 μg of total proteins and the culture medium were reacted with the Ni-NTA resin at 4 for 5 hours. After 5 hours, the reacted material was washed five times with a washing buffer (50 mM Tris, pH 7.5, 150 mM NaCl, and 0.5% Triton X-100), and then proteins attached to the resin were dissolved in the SDS sample buffer, followed by SDS-PAGE and then western blotting.

[2] = molecular target: T2, GLRX3C, GLRX3 mutant composed of only the C-terminal domains, expressed from 3xFLAG-CMV14/H14C (Homo sapiens, UniProt O76003 134-335); assay: as above
T2 construct: Deletion construct; not shown: C-terminal 3xFLAG tag of the 3xFLAG-CMV14 vector and the BamHI-site linker to it
T2 sequence: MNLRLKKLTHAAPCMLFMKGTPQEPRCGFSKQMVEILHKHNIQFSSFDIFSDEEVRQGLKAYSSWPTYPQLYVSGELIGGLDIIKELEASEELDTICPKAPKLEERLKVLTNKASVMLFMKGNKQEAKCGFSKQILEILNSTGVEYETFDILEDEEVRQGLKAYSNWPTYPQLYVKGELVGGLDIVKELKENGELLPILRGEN

T1 sequence (P00634 22-471): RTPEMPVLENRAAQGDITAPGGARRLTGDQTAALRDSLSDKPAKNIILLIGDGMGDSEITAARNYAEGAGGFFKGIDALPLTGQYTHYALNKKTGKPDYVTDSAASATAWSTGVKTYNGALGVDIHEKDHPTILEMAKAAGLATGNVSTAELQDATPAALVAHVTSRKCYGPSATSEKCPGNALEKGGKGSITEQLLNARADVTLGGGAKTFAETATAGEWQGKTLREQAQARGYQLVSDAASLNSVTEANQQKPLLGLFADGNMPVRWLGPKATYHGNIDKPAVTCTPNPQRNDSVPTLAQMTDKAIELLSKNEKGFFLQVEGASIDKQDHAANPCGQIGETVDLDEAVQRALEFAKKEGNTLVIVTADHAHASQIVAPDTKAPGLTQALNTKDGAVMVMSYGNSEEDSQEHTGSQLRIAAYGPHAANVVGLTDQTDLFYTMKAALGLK

B1: PAUF-Myc/His from pcDNA3.1(+)-PAUF-Myc/His (other, UniProt Q96DA0 17-172, looked up)
chain: GKMYGPGGGKYFSTTEDYDHEITGLRVSVGLLLVKSVQVKLGDSWDVKLGALGGNTQEVTLQPGEYITKVFVAFQAFLRGMVMYTSKDRYFYFGKLDGQISSAYPSQEGQVLVGIYGQYQLLGIKSIGFEWNYPLEEPTTEPPVNLTYSANSPVGR
notes: In vivo experiment: expressed in HeLa cells, total proteins and culture medium reacted with Ni-NTA resin; also called PAUF-His; His-PAUF; not shown: Myc/His tag of the pcDNA3.1(+)-Myc/His vector (Invitrogen)
- binding result [1]: no binding
- binding result [2]: no binding
